target: Jak2 (UniProt O60674); assay: phosphorylation enrichment, bacterial display (enrichment ratio); higher = better substrate or ligand; peptides without Tyr show the background
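Note: 11-residue human phosphosite peptides and single-mutation variants displayed on the E. coli surface, counted by deep sequencing, each peptide's frequency after selection divided by its frequency in the unselected input library; frequency after pTyr selection over input frequency; kinase dosed for 20-30% of maximal phosphorylation in three min.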

Sequence of Jak2 (O60674 whole entry, looked up): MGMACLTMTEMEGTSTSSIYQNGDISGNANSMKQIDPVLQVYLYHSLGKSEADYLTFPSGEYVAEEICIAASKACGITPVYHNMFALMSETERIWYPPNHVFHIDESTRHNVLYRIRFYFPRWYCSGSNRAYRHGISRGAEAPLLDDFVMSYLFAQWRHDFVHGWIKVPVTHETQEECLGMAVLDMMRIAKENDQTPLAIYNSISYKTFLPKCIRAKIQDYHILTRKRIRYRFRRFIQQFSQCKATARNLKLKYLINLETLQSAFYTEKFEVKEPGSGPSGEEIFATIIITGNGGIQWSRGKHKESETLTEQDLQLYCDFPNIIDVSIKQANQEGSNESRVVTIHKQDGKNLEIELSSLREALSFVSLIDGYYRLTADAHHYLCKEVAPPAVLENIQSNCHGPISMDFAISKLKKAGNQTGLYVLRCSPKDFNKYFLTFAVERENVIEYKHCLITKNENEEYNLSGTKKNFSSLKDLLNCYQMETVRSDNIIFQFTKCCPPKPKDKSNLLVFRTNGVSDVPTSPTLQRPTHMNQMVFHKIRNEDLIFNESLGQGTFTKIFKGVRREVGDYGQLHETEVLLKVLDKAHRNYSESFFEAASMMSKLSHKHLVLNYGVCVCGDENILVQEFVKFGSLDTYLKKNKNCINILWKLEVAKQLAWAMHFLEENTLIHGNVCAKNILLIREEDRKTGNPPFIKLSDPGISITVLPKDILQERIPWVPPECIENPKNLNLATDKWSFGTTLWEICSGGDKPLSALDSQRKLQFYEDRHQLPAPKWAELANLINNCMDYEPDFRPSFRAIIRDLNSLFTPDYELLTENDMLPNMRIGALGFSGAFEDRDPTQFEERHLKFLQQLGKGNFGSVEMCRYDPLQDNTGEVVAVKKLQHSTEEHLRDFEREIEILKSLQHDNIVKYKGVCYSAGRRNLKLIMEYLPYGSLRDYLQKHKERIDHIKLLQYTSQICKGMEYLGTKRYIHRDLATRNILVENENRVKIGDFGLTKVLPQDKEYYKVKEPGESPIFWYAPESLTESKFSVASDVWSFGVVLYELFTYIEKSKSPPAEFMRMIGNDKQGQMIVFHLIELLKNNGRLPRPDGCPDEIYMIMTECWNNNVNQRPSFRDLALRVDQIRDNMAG

Sequence	phosphorylation enrichment
HRGSLYLAIEF [TEK_Y899_Y897S_YF]	1.28
VFPIDYYFPPQ [AR_Y552_L548F]	6.13
PLDNLYAEPAV [PRPS1_Y146_V142L]	1.83
YASALYRQRRS [FGF11_Y162]	0.513
VKPENYWRLDI [VHL_Y175_R176W]	1.39
FLRKEYGGLNV [CBR3_Y81]	0.615
DKATEYIQFVR [MAX_Y70_M74V_YF]	0.55
MGSFNYLGFAR [SPTLC2_Y178_YF]	1.15
KIPGRYFETGS [PAX2_Y72_L69P_YF]	0.783
GSPAPYRRRKR [MBD1_Y403_P401A]	0.632
PINEPYGDDLD [JUP_Y693_M697L]	1.16
LHSDHYSPSGR [TMPRSS12_Y23_Y19H]	0.414
EKQLLYSENKT [FRK_Y132]	0.638
NSRYTCKLEVK [USH2A_Y3747_Y3747C]	1.19
DRLASNLDKVR [KRT10_Y160_Y160N]	0.488
GNHVSYYQSDG [CACNA1C_Y1757]	0.667
SIIKDSFHRGA [GATM_Y203_Y203S]	0.404

Sequence	phosphorylation enrichment
EFLHKYKGFKI [SYNE1_Y6953_Q6951H_YF]	0.667
KTDVRYRSLGG [DYSF_Y1858_H1857R]	0.553
SVEVPYEPPEV [TP53_Y220_V217E]	1.41
RVGNMYVRGLS [ABCG8_Y209]	0.709
PLGKDYRKAEG [MAP1A_Y1909]	0.378
SYMVRYNQPRV [GRIN2D_Y736]	0.651
SFKNKYGMVAQ [APOB_Y276_YF]	0.43
GLRSFYETSKM [MAGED2_Y449_YF]	0.707
AEYGLYGAMVW [VSX2_Y222_R227W]	1.25
TVFENYVADIE [RHOA_Y42]	1.46
PESIPYRKFTT [NTRK1_Y701_L700P]	0.992
ATDLAYYLVRE [ASL_Y375_K380E]	2.38
FHNSEYGELSE [FLT4_Y1337_Y1333H]	1.05
HNQDGYSFLSR [LDLR_Y845_P848L_YF]	1.25
ASPKSYPSQKH [CAP2_Y316_T311A]	0.464
KICDWYQRQRP [KRT14_Y151_R148C]	0.651

target: Hck (UniProt P08631); assay: as above
Sequence (P08631 whole entry, looked up): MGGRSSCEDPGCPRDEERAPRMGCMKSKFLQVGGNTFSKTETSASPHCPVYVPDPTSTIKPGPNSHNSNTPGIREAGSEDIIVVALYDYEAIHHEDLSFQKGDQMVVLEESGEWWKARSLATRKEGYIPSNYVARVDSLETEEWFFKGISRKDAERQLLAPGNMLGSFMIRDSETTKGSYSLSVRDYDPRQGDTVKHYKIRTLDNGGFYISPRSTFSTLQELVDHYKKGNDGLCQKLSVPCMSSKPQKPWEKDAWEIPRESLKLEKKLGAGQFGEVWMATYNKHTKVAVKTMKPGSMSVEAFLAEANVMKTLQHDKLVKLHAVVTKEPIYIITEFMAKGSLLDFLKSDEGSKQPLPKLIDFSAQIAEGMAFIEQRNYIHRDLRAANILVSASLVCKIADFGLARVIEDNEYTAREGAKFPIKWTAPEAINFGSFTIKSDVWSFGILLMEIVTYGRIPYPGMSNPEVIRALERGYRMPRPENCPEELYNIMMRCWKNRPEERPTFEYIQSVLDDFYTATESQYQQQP

Sequence	phosphorylation enrichment
HRGSLYLAIEF [TEK_Y899_Y897S_YF]	0.48
VFPIDYYFPPQ [AR_Y552_L548F]	0.851
PLDNLYAEPAV [PRPS1_Y146_V142L]	4.65
YASALYRQRRS [FGF11_Y162]	0.548
VKPENYWRLDI [VHL_Y175_R176W]	0.443
FLRKEYGGLNV [CBR3_Y81]	0.404
DKATEYIQFVR [MAX_Y70_M74V_YF]	0.636
MGSFNYLGFAR [SPTLC2_Y178_YF]	0.485
KIPGRYFETGS [PAX2_Y72_L69P_YF]	0.396
GSPAPYRRRKR [MBD1_Y403_P401A]	0.498
PINEPYGDDLD [JUP_Y693_M697L]	0.532
LHSDHYSPSGR [TMPRSS12_Y23_Y19H]	0.851
EKQLLYSENKT [FRK_Y132]	0.85
NSRYTCKLEVK [USH2A_Y3747_Y3747C]	0.471
DRLASNLDKVR [KRT10_Y160_Y160N]	0.33
GNHVSYYQSDG [CACNA1C_Y1757]	0.57
SIIKDSFHRGA [GATM_Y203_Y203S]	0.394

Sequence	phosphorylation enrichment
EFLHKYKGFKI [SYNE1_Y6953_Q6951H_YF]	0.435
KTDVRYRSLGG [DYSF_Y1858_H1857R]	0.314
SVEVPYEPPEV [TP53_Y220_V217E]	0.596
RVGNMYVRGLS [ABCG8_Y209]	0.675
PLGKDYRKAEG [MAP1A_Y1909]	0.945
SYMVRYNQPRV [GRIN2D_Y736]	0.385
SFKNKYGMVAQ [APOB_Y276_YF]	0.354
GLRSFYETSKM [MAGED2_Y449_YF]	0.506
AEYGLYGAMVW [VSX2_Y222_R227W]	5.32
TVFENYVADIE [RHOA_Y42]	0.588
PESIPYRKFTT [NTRK1_Y701_L700P]	0.721
ATDLAYYLVRE [ASL_Y375_K380E]	1.01
FHNSEYGELSE [FLT4_Y1337_Y1333H]	0.724
HNQDGYSFLSR [LDLR_Y845_P848L_YF]	0.841
ASPKSYPSQKH [CAP2_Y316_T311A]	0.333
KICDWYQRQRP [KRT14_Y151_R148C]	0.407

target: Fyn (UniProt P06241); assay: as above
Sequence (P06241 whole entry, looked up): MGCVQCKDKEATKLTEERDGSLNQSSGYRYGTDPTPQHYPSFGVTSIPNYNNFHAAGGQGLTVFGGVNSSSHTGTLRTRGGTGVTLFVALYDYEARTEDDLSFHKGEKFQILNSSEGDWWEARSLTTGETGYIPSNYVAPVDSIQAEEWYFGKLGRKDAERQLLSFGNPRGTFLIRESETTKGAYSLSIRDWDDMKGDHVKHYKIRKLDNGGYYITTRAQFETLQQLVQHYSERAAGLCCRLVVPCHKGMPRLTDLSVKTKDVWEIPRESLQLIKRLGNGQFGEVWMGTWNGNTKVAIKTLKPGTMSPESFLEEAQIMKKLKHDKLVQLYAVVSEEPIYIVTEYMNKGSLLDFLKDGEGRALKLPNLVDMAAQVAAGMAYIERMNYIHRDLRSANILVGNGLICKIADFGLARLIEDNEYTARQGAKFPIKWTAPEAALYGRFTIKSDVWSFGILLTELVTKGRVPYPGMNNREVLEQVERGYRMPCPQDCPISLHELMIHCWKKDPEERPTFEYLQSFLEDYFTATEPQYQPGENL

Sequence	phosphorylation enrichment
HRGSLYLAIEF [TEK_Y899_Y897S_YF]	0.538
VFPIDYYFPPQ [AR_Y552_L548F]	0.816
PLDNLYAEPAV [PRPS1_Y146_V142L]	2.13
YASALYRQRRS [FGF11_Y162]	0.687
VKPENYWRLDI [VHL_Y175_R176W]	0.381
FLRKEYGGLNV [CBR3_Y81]	0.45
DKATEYIQFVR [MAX_Y70_M74V_YF]	0.442
MGSFNYLGFAR [SPTLC2_Y178_YF]	0.439
KIPGRYFETGS [PAX2_Y72_L69P_YF]	0.466
GSPAPYRRRKR [MBD1_Y403_P401A]	0.502
PINEPYGDDLD [JUP_Y693_M697L]	0.781
LHSDHYSPSGR [TMPRSS12_Y23_Y19H]	0.778
EKQLLYSENKT [FRK_Y132]	0.465
NSRYTCKLEVK [USH2A_Y3747_Y3747C]	0.407
DRLASNLDKVR [KRT10_Y160_Y160N]	0.382
GNHVSYYQSDG [CACNA1C_Y1757]	0.462
SIIKDSFHRGA [GATM_Y203_Y203S]	0.369

Sequence	phosphorylation enrichment
EFLHKYKGFKI [SYNE1_Y6953_Q6951H_YF]	0.318
KTDVRYRSLGG [DYSF_Y1858_H1857R]	0.35
SVEVPYEPPEV [TP53_Y220_V217E]	0.603
RVGNMYVRGLS [ABCG8_Y209]	0.574
PLGKDYRKAEG [MAP1A_Y1909]	0.72
SYMVRYNQPRV [GRIN2D_Y736]	0.38
SFKNKYGMVAQ [APOB_Y276_YF]	0.353
GLRSFYETSKM [MAGED2_Y449_YF]	0.331
AEYGLYGAMVW [VSX2_Y222_R227W]	6.22
TVFENYVADIE [RHOA_Y42]	0.58
PESIPYRKFTT [NTRK1_Y701_L700P]	0.375
ATDLAYYLVRE [ASL_Y375_K380E]	0.929
FHNSEYGELSE [FLT4_Y1337_Y1333H]	1.1
HNQDGYSFLSR [LDLR_Y845_P848L_YF]	0.654
ASPKSYPSQKH [CAP2_Y316_T311A]	0.374
KICDWYQRQRP [KRT14_Y151_R148C]	0.447

target: FGFR3 (UniProt P22607); assay: as above
Sequence (P22607 whole entry, looked up): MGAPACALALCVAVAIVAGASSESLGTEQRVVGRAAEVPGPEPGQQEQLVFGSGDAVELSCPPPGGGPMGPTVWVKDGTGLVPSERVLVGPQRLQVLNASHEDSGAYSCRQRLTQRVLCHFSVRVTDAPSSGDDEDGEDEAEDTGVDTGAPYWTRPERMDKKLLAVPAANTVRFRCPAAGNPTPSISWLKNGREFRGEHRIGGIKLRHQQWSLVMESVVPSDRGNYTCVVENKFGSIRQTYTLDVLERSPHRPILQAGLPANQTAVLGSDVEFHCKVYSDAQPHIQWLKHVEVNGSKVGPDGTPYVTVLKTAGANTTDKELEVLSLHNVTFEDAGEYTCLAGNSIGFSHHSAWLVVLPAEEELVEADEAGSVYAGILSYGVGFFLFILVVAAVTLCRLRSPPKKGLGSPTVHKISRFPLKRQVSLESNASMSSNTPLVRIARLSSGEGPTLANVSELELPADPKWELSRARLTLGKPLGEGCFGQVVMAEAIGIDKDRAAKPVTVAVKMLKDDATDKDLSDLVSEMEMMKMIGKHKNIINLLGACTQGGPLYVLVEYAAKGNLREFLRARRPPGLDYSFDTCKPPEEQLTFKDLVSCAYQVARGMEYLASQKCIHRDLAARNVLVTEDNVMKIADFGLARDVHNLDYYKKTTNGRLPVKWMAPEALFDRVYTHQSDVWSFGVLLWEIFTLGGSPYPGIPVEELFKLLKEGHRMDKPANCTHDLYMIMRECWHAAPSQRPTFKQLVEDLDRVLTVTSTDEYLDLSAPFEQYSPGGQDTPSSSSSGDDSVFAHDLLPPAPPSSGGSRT

Sequence	phosphorylation enrichment
HRGSLYLAIEF [TEK_Y899_Y897S_YF]	0.902
VFPIDYYFPPQ [AR_Y552_L548F]	12.9
PLDNLYAEPAV [PRPS1_Y146_V142L]	1.09
YASALYRQRRS [FGF11_Y162]	0.58
VKPENYWRLDI [VHL_Y175_R176W]	0.895
FLRKEYGGLNV [CBR3_Y81]	0.437
DKATEYIQFVR [MAX_Y70_M74V_YF]	0.551
MGSFNYLGFAR [SPTLC2_Y178_YF]	0.603
KIPGRYFETGS [PAX2_Y72_L69P_YF]	0.531
GSPAPYRRRKR [MBD1_Y403_P401A]	0.426
PINEPYGDDLD [JUP_Y693_M697L]	0.988
LHSDHYSPSGR [TMPRSS12_Y23_Y19H]	0.871
EKQLLYSENKT [FRK_Y132]	0.599
NSRYTCKLEVK [USH2A_Y3747_Y3747C]	0.885
DRLASNLDKVR [KRT10_Y160_Y160N]	0.348
GNHVSYYQSDG [CACNA1C_Y1757]	0.81
SIIKDSFHRGA [GATM_Y203_Y203S]	0.462

Sequence	phosphorylation enrichment
EFLHKYKGFKI [SYNE1_Y6953_Q6951H_YF]	0.545
KTDVRYRSLGG [DYSF_Y1858_H1857R]	0.472
SVEVPYEPPEV [TP53_Y220_V217E]	0.907
RVGNMYVRGLS [ABCG8_Y209]	0.682
PLGKDYRKAEG [MAP1A_Y1909]	0.787
SYMVRYNQPRV [GRIN2D_Y736]	0.523
SFKNKYGMVAQ [APOB_Y276_YF]	0.39
GLRSFYETSKM [MAGED2_Y449_YF]	0.42
AEYGLYGAMVW [VSX2_Y222_R227W]	0.86
TVFENYVADIE [RHOA_Y42]	0.925
PESIPYRKFTT [NTRK1_Y701_L700P]	0.936
ATDLAYYLVRE [ASL_Y375_K380E]	6.9
FHNSEYGELSE [FLT4_Y1337_Y1333H]	0.738
HNQDGYSFLSR [LDLR_Y845_P848L_YF]	0.657
ASPKSYPSQKH [CAP2_Y316_T311A]	0.406
KICDWYQRQRP [KRT14_Y151_R148C]	0.598
